This is an account of results in patent US20230287125A1 (LEPU BIOPHARMA, published 2023).

The Kd is the concentration at which binding is half-saturated. A high value points to lower affinity. By koff is commonly meant the first-order rate constant of dissociation. Low values mean slow dissociation, high ones fast dissociation. Usually kon stands for the second-order rate constant of association. Low readings indicate slower complex formation, high ones faster complex formation. The EC50 is the concentration at which the effect is half-maximal.

Where a chain is given by its changes, count along the chain named. Names and notes keep the numbering of the source.

The target of test [1] is PD-L1 on PD-L1 target cells (Homo sapiens (Human), UniProt Q9NZQ7 19-290). As to the kind of experiment: cell-based or functional assay.
The target of test [2] is T1, human PD-L1-his tag protein (human, UniProt Q9NZQ7 19-238).
T1 construct: also called human PD-L1-His protein; recombinant PD-L1 protein; not shown: his tag
As to the kind of experiment: SPR (Biacore), affinity ranking, PDL1-His. (In general: SPR reads the build-up and loss of mass on a sensor chip optically.)

Test [3] addresses T2, human PD-L1-Fc protein (human, UniProt Q9NZQ7 19-238).
T2 construct: coating antigen of the ELISAs; also called rhPD-L1-Fc; not shown: Fc
As to the kind of experiment: ELISA, antibody titrated on coated human PD-L1-Fc, OD 450nm; lower left panel; the table row is headed 'IC50' on the sheet although the curves rise. As for the experimental part: (§1) To evaluate antigen binding activity, the humanized antibodies were subjected to ELISA test. Briefly, microtiter plates were coated with human PD-L1-Fc protein at 0.5 μg/ml in PBS, 100 μl/well at 4° C. overnight, then blocked with 200 μl/well of 1% BSA. Three-fold dilutions of humanized antibodies starting from 10 μg/ml were added to each well and incubated for 1 hour at 37° C. The plates were washed with PBS/Tween and then incubated with mouse-anti-human IgG Fab antibody conjugated with Horse Radish Peroxidase (HRP) for 1 hour at 37° C. After washing, the plates were developed with TMB substrate and analyzed by spectrophotometer at OD 450 nm.

Test [4] concerns the target T2, human PD-L1-Fc protein. In words: ELISA, antibody titrated on coated human PD-L1-Fc, OD 450nm; lower right panel. The protocol: as §1
Test [5] deals with T2, human PD-L1-Fc protein. As to the kind of experiment: ELISA, antibody titrated on coated human PD-L1-Fc, OD 450nm; lower left panel. The protocol:
as §1

Chain of PD-L1 on PD-L1 target cells (Q9NZQ7 19-290 limits assumed): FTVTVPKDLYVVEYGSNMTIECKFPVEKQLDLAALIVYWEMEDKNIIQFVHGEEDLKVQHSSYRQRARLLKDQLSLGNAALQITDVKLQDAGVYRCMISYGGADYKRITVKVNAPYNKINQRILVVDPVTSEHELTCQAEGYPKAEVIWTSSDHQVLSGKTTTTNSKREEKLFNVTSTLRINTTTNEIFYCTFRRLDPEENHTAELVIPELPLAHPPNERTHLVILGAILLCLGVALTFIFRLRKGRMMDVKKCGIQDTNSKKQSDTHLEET
T2 sequence (Q9NZQ7 19-238 limits assumed): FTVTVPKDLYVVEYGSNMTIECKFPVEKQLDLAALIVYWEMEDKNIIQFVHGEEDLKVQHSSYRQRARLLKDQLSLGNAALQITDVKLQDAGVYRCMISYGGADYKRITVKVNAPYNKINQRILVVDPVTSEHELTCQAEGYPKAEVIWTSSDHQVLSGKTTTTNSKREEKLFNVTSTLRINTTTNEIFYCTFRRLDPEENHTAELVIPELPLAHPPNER
T1 sequence (Q9NZQ7 19-238 limits assumed): as above

B1: Hu67F3G7-22, Human IgG1 (N297A)-Fc (antibody, V domains shown)
VH: EVQLVQSGAEVKKPGASVKVSCKASGYTFTDFWVSWVRQAPGQGLEWMGEIYPNSGVSRYNEKFKGRVTMTVDKSISTAYMELSRLRSDDTAVYYCTKYFGYTYWFGYWGQGTLVTVSS
VL: DIQMTQSPSSLSASVGDRVTITCRASKSVSTYMHWYQQKPGKQPKLLIYSASHLESGVPSRFSGSGSGTDFTLTISSLQPEDFATYYCQQSNELPVTFGGGTKVEIK
As to B1, in test [1], the “EC50, NFAT-RE-mediated luminescence, PD1 effector cells co-cultured with PD-L1 target cells” value (from here on “EC50, NFAT-RE-mediated luminescence”) was 0.103 nM.

B2: Hu67F3G7-18 (antibody, V domains shown)
VH: B1 VH with T28I, M48I
VL: DTVLTQSPSLSASVGDRVTITCRASKSVSTYMHWYQQKPGKQPKLLIYSASHLESGVPSRFSGSGSGTDFTLTISSLQPEDFATYYCQQSNELPVTFGGGTKVEIK
notes: humanized
In test [2], B2 had a dissociation constant (Kd) of 0.0331 nM, an off-rate constant (koff) of 9.51e-05 s⁻¹ and a kon of 2.88e+06 M⁻¹ s⁻¹. In test [3], this molecule gave a 50% effective concentration (EC50) of 0.014 µg/mL.

B3: Hu67F3G7-20 (antibody, V domains shown)
VH: B1 VH with T28I, Q43K, M48I
VL: B2 VL
notes: humanized
Regarding B3, the EC50 in test [4] was 0.0146 µg/mL. In test [2], binding was characterised by a dissociation constant (Kd) of 0.0347 nM, the off-rate (koff) was found to be 9.36e-05 s⁻¹ and the on-rate constant (kon) was 2.7e+06 M⁻¹ s⁻¹.

B4: Hu67F3G7-15 (antibody, V domains shown)
VH: B1 VH with T28I, Q43K, M48I
VL: B1 VL with I2T, Q3V, M4L
notes: humanized
For B4, in test [2], binding was characterised by a dissociation constant (Kd) of 0.0371 nM, the off-rate (koff) was found to be 9.69e-05 s⁻¹ and the kon turned out to be 2.61e+06 M⁻¹ s⁻¹. This molecule also displayed an EC50 in test [3] of 0.0111 µg/mL.

B5: Hu67F3G7-17 (antibody, V domains shown)
VH: B1 VH
VL: B2 VL
notes: humanized
As to B5, in test [2], binding was characterised by a dissociation constant (Kd) of 0.037 nM, the off-rate constant (koff) amounted to 0.000101 s⁻¹ and the kon was found to be 2.74e+06 M⁻¹ s⁻¹. Also, the EC50 in test [3] worked out at 0.0136 µg/mL.

B6: Hu67F3G7-13 (antibody, V domains shown)
VH: B1 VH with T28I, M48I
VL: B1 VL with I2T, Q3V, M4L
notes: humanized
As to B6, in test [2], the dissociation constant (Kd) was found to be 0.0341 nM, the koff stood at 9.54e-05 s⁻¹ and the kon is 2.8e+06 M⁻¹ s⁻¹. In test [3], this molecule registered a half-maximal effective concentration (EC50) of 0.0102 µg/mL.

B7: Hu67F3G7-19 (antibody, V domains shown)
VH: B1 VH with T28I, M48I, T97A, K98R
VL: B2 VL
notes: humanized
For the molecule B7, in test [4], the half-maximal effective concentration (EC50) was 0.0132 µg/mL. In test [2], this molecule returned an equilibrium dissociation constant (Kd) of 0.0545 nM, a koff of 0.000107 s⁻¹ and a kon of 1.97e+06 M⁻¹ s⁻¹.

B8: Hu67F3G7-14 (antibody, V domains shown)
VH: B1 VH with T28I, M48I, T97A, K98R
VL: B1 VL with I2T, Q3V, M4L
notes: humanized
In the case of B8, in test [2], the equilibrium dissociation constant (Kd) stood at 0.0519 nM, the off-rate constant (koff) came out at 0.000109 s⁻¹ and the on-rate (kon) came to 2.09e+06 M⁻¹ s⁻¹. In test [3], this molecule had a half-maximal effective concentration (EC50) of 0.0144 µg/mL.

B9: Hu67F3G7-21 (antibody, V domains shown)
VH: B1 VH with T97A, K98R
VL: B1 VL
notes: humanized
For the molecule B9, the 50% effective concentration (EC50) in test [4] was found to be 0.00919 µg/mL. In test [2], this molecule gave a Kd of 0.156 nM, a koff of 8.43e-05 s⁻¹ and a kon of 540000 M⁻¹ s⁻¹.

B10: Hu67F3G7-16 (antibody, V domains shown)
VH: B1 VH with T97A, K98R
VL: B2 VL
notes: humanized
B10: in test [2], the equilibrium dissociation constant (Kd) was determined as 0.0754 nM, the koff amounted to 0.000111 s⁻¹ and the kon is 1.48e+06 M⁻¹ s⁻¹. Besides, the EC50 in test [3] amounted to 0.0114 µg/mL.

B11: Hu89C10H8-7, Human IgG1 (N297A)-Fc (antibody, V domains shown)
VH: EVQLVESGGGLVKPGGSLRLSCAASGFTFSNYWMTWIRQAPGKGLEWVASITNTGSSTFYPDSVKGRFTISRDNAKNSLYLQMNSLRAEDTAVYYCTRDTTIAPFDYWGQGTMVTVSS
VL: DIQMTQSPSSLSASVGDRVTITCKASQNLNEYLNWYQQKPGKAPKRLIYKTNTLQAGIPSRFSGSGSGTDYTLTISSLQPEDFATYYCSQYNSGNTFGQGTKLEIK
In the case of B11, the “EC50, NFAT-RE-mediated luminescence” value in test [1] is 0.214 nM.

B12: Hu89C10H8-16 (antibody, V domains shown)
VH: B11 VH with N77S
VL: B11 VL with P40L, K42E, T69I, Y87F
notes: humanized
Take B12: in test [2], binding was characterised by a dissociation constant (Kd) of 0.098 nM, the koff came to 6.54e-05 s⁻¹ and the on-rate (kon) came to 667000 M⁻¹ s⁻¹. The same molecule came in with an EC50 in test [5] of 0.00757 µg/mL.

B13: Hu89C10H8-15 (antibody, V domains shown)
VH: B11 VH
VL: B11 VL with P40L, K42E, T69I, Y87F
notes: humanized
In test [2], B13 gave a Kd of 0.0918 nM, a koff of 7.17e-05 s⁻¹ and a kon of 781000 M⁻¹ s⁻¹. In addition, a half-maximal response in test [5] (EC50) required 0.0088 µg/mL.

B14: Hu89C10H8-13 (antibody, V domains shown)
VH: B11 VH with I37V, T97A
VL: B11 VL with P40L, K42E, T69I, Y87F
notes: humanized
For the molecule B14, in test [2], binding was put at a Kd of 0.561 nM, the koff stood at 0.000433 s⁻¹ and the association rate constant (kon) came to 764000 M⁻¹ s⁻¹. For the same molecule, the concentration for a half-maximal effect (EC50) in test [5] amounted to 0.00994 µg/mL.

B15: Hu89C10H8-14 (antibody, V domains shown)
VH: B11 VH with I37V
VL: B11 VL with P40L, K42E, T69I, Y87F
notes: humanized
On to B15, for which, in test [2], the equilibrium dissociation constant (Kd) is 0.137 nM, the off-rate constant (koff) stood at 9.75e-05 s⁻¹ and the on-rate constant (kon) was found to be 712000 M⁻¹ s⁻¹. In test [5], this molecule showed a concentration for a half-maximal effect (EC50) of 0.00983 µg/mL.

B16: 47C6A3, Human IgG1 (N297A)-Fc (antibody, V domains shown)
VH: DVQLQESGPGLVKPSQSLSLTCTVTGYSITSDYAWNWIRQFPGNKLEWMGYIIYSGSTSYNPSLKSRISITRDTSKNQFFLQLNSVTTEDTATYYCARSTMIATNWFAYWGQGTLVTVSA
VL: DIVMTQSHKFMSTSVVDRVSITCKASQDVSLAVAWYQQKPGQSPKLLIYWASTRHTGVPDRFTGSGSGTDFALTISSVQAEDLALYYCQQHYITPWTFGGGTKLEIK
As to B16, in test [1], the “EC50, NFAT-RE-mediated luminescence” value was determined as 0.15 nM.
